A short description of data set [1]: Inhibition of the oxidation of ABTS by NPE-hemoglobin conjugates (microtitration plate, H2O2). Type of data set: biochemical. The settings on record: oxidation of ABTS 1 mM, H2O2 1 mM, sodium acetate buffer pH 5, before dialysis. How it is done: Bovine hemoglobin in aqueous solution (32 μM) is treated with different concentrations of 1-(2-nitrophenyl)ethyldiazoethane (NPE-diazo) in solution in DMSO at 20° C. for 1 h in darkness. The final concentration of DMSO should not exceed 5%. The NPE-diazo concentrations vary from 50 to 100 equivalents with respect to the hemoglobin. The coupling reaction is halted by addition of a 100 mM acetate buffer solution at pH 4.4 (1 equivalent with respect to NPE-diazo). The contact times vary from 10 to 30 min. The reaction mixture is subsequently dialyzed against water, between 4 and 20° C., between 1 and 16 hours, against 1000 volumes of water. The conjugate is stored at 20° C.
The percentage of inhibition of the oxidation of ABTS [diammonium salt of 2,2′-azinobis(3-ethylbenzothiazolinone-6-sulfonic acid), 1 mM] is determined before dialysis on 96-well microtitration plates (Costar, Corning Incorporated) in sodium acetate buffer, […], pH 5, in the presence of 1 mM of hydrogen peroxide. The number of molecules attached per hemoglobin molecule is determined by mass spectrometry (electrospray).

Data set [2] in a line: Restoration of the enzymatic activity (ABTS oxidation) after photolysis at 366 nm. To be noted: after irradiating for 30 min at 366 nm; ABTS 1 mM, H2O2 1 mM. The class given is biochemical. Here is the method: The oxidation catalyst is reactivated by irradiation of the solutions of the various conjugates (1 mg/ml) in sodium acetate buffer (25 mM, pH 4.4). Photolysis takes place at 366 nm (100 W UV lamp, 7 mW/cm^2 at a distance of 30 cm); the irradiation times vary from 5 to 30 min. This stage is advantageously carried out in the presence of 5 mM of 2-ethanolamine in order to trap possible cross reactions between photolysis products and hemoglobin.
The restoration of the enzymatic activity is determined in microtitration plates as described above in the presence of ABTS (1 mM) and H2O2 (1 mM).

As for “Hb-75: Bovine hemoglobin treated with 75 equivalents of 1-(2-nitrophenyl)ethyldiazoethane (NPE-diazo); NPE-hemoglobin conjugate”, in data set [1], the “Residual activity (%)” value is listed as 5.4%. In addition, the “activity recovered after irradiation” value in data set [2] was determined as 28%.

As to “Hb-100: Bovine hemoglobin treated with 100 equivalents of 1-(2-nitrophenyl)ethyldiazoethane (NPE-diazo); NPE-hemoglobin conjugate”, the “Residual activity (%)” value in data set [1] is given as 2.5%. Also, the “activity recovered after irradiation” value in data set [2] is 16%.

With “Hb-50: Bovine hemoglobin treated with 50 equivalents of 1-(2-nitrophenyl)ethyldiazoethane (NPE-diazo); NPE-hemoglobin conjugate”, the “Residual activity (%)” value in data set [1] was 12.6%. Also, in data set [2], the “activity recovered after irradiation” value is recorded as 57%.

In the case of “Native hemoglobin: Untreated bovine hemoglobin, oxidation catalyst used as 100% activity reference [reference compound]”, the “Residual activity (%)” value in data set [1] is given as 100%.

These data come from patent US7951210B2, “Support-colouring means” (Doublet Luc, priority 2004, dated 2011).
